{
  "source": "patent US20050159352A1",
  "about": "“Use of monocarboxylate transporter protein for thyroid hormone transport” (priority 2002, published 2005)",
  "proteins": {"B1": {"name": "MCT8 (Rattus norvegicus; G227D/I169T/S199P/T171I) (protein)", "chain": "MALPSPASEEAEGPCQEANQEYQEPVCSPVPEPEPEPEPEPEPEPEPVPVPPPEPQPEPEPQPLPDPAPLPVLGFEAEPVQEPEPTPTVETRGTARGFQPPEGGFGWIVVFAATWCNGSIFGIHNSVGILYSMLLEEEKEKNRQVEFQAAWVGALAMGMIFFCSPIVSTFIDRLGCRITATTGAAVAFIGLHTSSFTSPLSLRYFTYGILFGCGCSFAFQPSLVILDHYFQRRLGLANGVVSAGSSIFSMSFPFLIKMLGDRIKLAQTFQVLSTFMFVLTLLSLTYRPLLPSSQDTPSKRGAHTLRQRFLVQFRKYFNMRVFRQRTYRIWAFGIAAAALGYFVPYVHLMKYVEDKFKEIKETWVLLVCIGATSGLGRLVSGHISDSIPGLKKIYLQVLSFLLLGLMSMMIPLCRDFGGLIVVCLFLGLCDGFFITIMAPIAFELVGPMQASQAIGYLLGMMALPMIAGPPIAGLLRNCFGNYHVAFYFAGVPPIIGAVILFFVPLMHQRMFKKEQRESSKDKMLSHDPDPNGELLPGSPTPEEPI"}},
  "substrate": "N[C@@H](Cc1ccc(Oc2cc(I)c(O)c(I)c2)c(I)c1)C(=O)O",
  "assay": "cells, lysate or membranes",
  "details": "other: net MCT8 transport, Michaelis-Menten analysis",
  "procedure": "Apparent Km values were calculated by fitting the plot of uptake rate (v) versus ligand concentration (5) to the Michaelis Menten equation: v=Vmax/(1+Km/S), wherein Vmax is the maximum uptake rate, and Km the Michaelis constant. Calculations were performed using the Slide Write Plus program version 5.01 (Advanced Graphics Software).",
  "data": [
    {"protein": "B1", "values": [
      {"measurement": "Km", "result": 2.2, "unit": "µM"}
    ]}
  ]
}
